In assay [1] the target is IgG1-005-E345R/E430G/S440K (human). Kind of assay: HP-SEC in PBS pH 7.4, equimolar mixture of the two antibodies. (In gel filtration, larger molecules generally elute earlier.)
The target of assay [2] is IgG1-005-E345R/E430G/Y436I/S440K (human). The assay is described as above.
The target in assay [3] is IgG1-005-E345R/E430G/S440Y (human). The assay is described as follows: HP-SEC with multiple angle light scattering (MALS), self-association.
The target in assay [4] is Protein A (Staphylococcus aureus) (UniProt P38507). The assay is described as follows: apparent IgG concentration on Octet QK protein A sensortips against an IgG standard curve; A280 gave 2905 µg/ml.
In assay [5] the target is Protein A column (HiTrap MabSelectSuRe). The assay is described as follows: saturated 1.0 mL HiTrap MabSelectSuRe column loaded at neutral pH (hexamerization allowed), A280 of the dialyzed eluate.
Assay [6] has the same target. The assay is described as follows: 1.0 mL HiTrap MabSelectSuRe column, pH 5.0 against neutral pH.
The target in another assay is C1q (human) (UniProt P02745). Kind of assay: ELISA: antibody dilution series coated, 3% pooled human serum as source of C1q, anti-C1q detection.
Assay [7] deals with Protein A (Staphylococcus aureus) (UniProt P38507). Kind of assay: ratio of the concentrations by Octet protein A and by A280. A general note: In BLI a coated tip is dipped into the sample, and binding shifts an interference pattern.
In assay [8] the target is IgG1-005-E345R/E430G/S440Y (human). The assay is described as follows: dynamic light scattering, 2.86 mg/mL in PBS pH 7.4, self-association.
Assay [9] concerns the target Protein A column (HiTrap MabSelectSuRe). The assay is described as follows: saturated 1.0 mL HiTrap MabSelectSuRe column loaded at pH 5.0 (antibody monomeric), A280 of the dialyzed eluate.
Assay [10] deals with FcyRIIIa receptor, V158 (high affinity) variant (UniProt P08637). The assay is described as follows: cell-based or functional assay.
Sequence of FcyRIIIa receptor, V158 (high affinity) variant (P08637 other isoform, or with tags, fused parts or gaps mutant limits assumed): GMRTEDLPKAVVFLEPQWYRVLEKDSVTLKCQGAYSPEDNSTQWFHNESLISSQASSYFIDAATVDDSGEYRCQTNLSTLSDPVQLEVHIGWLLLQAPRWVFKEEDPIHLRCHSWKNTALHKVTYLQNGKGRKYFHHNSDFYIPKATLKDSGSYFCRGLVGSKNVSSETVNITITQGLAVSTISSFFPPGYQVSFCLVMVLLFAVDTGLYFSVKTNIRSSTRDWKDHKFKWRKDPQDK

Sequence of C1q (human) (P02745 23-245 limits assumed, chain 1 of 3): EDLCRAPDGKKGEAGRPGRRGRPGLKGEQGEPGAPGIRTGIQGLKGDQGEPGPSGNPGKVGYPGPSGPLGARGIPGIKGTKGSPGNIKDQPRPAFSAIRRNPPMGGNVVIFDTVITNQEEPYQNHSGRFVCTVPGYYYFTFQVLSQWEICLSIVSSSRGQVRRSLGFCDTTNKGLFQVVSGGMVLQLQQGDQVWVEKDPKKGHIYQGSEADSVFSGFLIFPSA
Sequence of C1q (human) (P02746 28-253 limits assumed, chain 2 of 3, further chain): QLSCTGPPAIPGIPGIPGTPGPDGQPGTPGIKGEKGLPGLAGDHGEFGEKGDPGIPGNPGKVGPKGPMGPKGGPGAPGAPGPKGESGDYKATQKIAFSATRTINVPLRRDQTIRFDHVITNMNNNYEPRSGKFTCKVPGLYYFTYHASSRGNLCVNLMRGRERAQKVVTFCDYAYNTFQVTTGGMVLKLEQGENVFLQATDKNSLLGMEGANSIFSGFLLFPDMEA
Sequence of C1q (human) (P02747 29-245 limits assumed, chain 3 of 3, further chain): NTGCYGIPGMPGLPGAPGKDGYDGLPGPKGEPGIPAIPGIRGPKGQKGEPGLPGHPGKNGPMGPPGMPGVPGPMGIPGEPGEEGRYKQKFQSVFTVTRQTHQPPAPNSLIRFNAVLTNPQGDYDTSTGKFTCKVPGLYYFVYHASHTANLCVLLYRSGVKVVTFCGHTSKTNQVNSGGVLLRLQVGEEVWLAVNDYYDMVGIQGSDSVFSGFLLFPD

For “IgG1-005-E345R/E430G/K439E/S440Y (antibody)”, the multimers (HP-SEC) in assay [1] turned out to be 65%; in assay [2], 93%.

A word on the EC50: it is the concentration that produces a half-maximal response. Higher therefore signals a less potent agent. On to IgG1-005-E345R/E430G/S440Y (antibody), for which, in assay [3], the apparent average MW of the multimeric peak was found to be 772 kDa and the monomeric subunits per complex (monomeric subunits) stood at 5.4. The Octet-Protein A in [4] was 2050 µg/mL. The same substance came in with a yield of Protein A purification at 1.0 mL scale in [5] of 21.4 mg. In assay [6], the increase of protein yield, binding at pH 5.0 against neutral pH came out at 36%. The same substance showed an EC50 with C1q (human) of 0.52 µg/mL. In addition, the A280/Protein A x 100 (%) in assay [7] is 71%. Besides, in [8], the apparent MW in solution turned out to be 876 kDa and the monomeric subunits per complex (monomeric subunits) was found to be 6.17. The substance further yielded a yield of Protein A purification at 1.0 mL scale in [9] of 29.1 mg. In assay [10], this substance showed an EC50 (ng/mL), ADCC reporter assay with Raji target cells of 36 ng/mL and a Maximal signal (RLU), ADCC reporter assay with Raji target cells of 394000 RLU.

Values taken from EP3632462A1.
